Measurements reported in patent US12404345B2, “Humanized antibodies against iRHOM2” (SCIRHOM GMBH, priority 2021, dated 2025).
Where a chain is given by its changes, count along the chain named.

T1: rhesus monkey iRhom1 (Macaca mulatta, UniProt F6ZPC8)
T1 construct: T7-tagged version of rhesus monkey iRhom1 full length wild type; expressed in transfected cells; host or cells: immortalized iRhom1/2-/- DKO mouse embryonic fibroblasts, pMSCV retroviral infection
T1 sequence (F6ZPC8 1-833): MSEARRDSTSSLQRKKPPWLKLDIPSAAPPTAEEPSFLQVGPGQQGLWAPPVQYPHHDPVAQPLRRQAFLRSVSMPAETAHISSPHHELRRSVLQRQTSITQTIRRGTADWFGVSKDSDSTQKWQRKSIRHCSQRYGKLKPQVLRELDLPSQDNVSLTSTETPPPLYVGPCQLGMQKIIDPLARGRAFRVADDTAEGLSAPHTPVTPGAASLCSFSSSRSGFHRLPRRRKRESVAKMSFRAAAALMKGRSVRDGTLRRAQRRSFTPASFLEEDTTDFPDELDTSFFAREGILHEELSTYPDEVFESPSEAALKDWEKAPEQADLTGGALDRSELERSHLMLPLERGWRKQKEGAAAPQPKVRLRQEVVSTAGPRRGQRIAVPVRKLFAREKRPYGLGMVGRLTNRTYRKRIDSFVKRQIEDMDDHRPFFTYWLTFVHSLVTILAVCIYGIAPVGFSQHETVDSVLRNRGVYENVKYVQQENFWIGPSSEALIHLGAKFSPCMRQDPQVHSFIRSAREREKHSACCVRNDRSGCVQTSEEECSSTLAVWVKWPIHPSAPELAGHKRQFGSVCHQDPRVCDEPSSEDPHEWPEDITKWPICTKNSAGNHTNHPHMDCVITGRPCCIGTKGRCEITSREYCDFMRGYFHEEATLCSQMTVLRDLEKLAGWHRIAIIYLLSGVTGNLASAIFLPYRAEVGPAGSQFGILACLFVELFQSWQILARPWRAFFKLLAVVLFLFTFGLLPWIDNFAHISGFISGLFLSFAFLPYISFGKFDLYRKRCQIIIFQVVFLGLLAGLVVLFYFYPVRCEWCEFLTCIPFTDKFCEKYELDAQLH

B1: 16-B-03: humanized antibody binding human iRhom2; HCVD SEQ ID NO 1, LCVD SEQ ID NO 5 (antibody, V domains shown)
VH: QVTLRESGPALVKPTQTLTLTCTFSGFSLSTFALGVGWIRQPPGKALEWLAHIWWDDDKYYNPALKSRLTISKDTSKNQVVLTITNMDPVDTATYYCARITTYYYGMDYWGQGTLVTVSS
VL: EIVMTQSPDFQSVTPKEKVTITCRASQSIGNHLHWYQQKPDASPKLLIKYASQSISGVPSRFSGSGSGTDFTLTINSLEAEDAATYFCQQSYQWPLTFGQGTKLEIK
modifications: antibody sequences
B2: 16-B-05: humanized antibody binding human iRhom2; HCVD SEQ ID NO 9, LCVD SEQ ID NO 13 (antibody, V domains shown)
VH: B1 VH with D57E
VL: B1 VL with Q93N
modifications: antibody sequences
B3: 16-B-07: humanized antibody binding human iRhom2; HCVD SEQ ID NO 17, LCVD SEQ ID NO 21 (antibody, V domains shown)
VH: B1 VH with D57E
VL: B1 VL
modifications: antibody sequences
B4: 23-B-04: humanized antibody binding human iRhom2; HCVD SEQ ID NO 25, LCVD SEQ ID NO 29 (antibody, V domains shown)
VH: QVTLRESGPALVKPTQTLTLTCTFSGFSLSTFGMGVGWIRQPPGKALEWLAHIWWDDEKYYNSALKSRLTISKDTSKNQVVLTITNMDPVDTATYYCARISNYGSNYWYFNVWGQGTLVTVSS
VL: AIQLTQSPSSLSASVGDRVTITCRASSSVSYMYWYQQKPGKAPKVLIYDTSNLASGVPSRFSGSGSGTDYTLTISSLQPEDFATYYCQQWNAYPLTFGQGTKLEIK
modifications: antibody sequences
B5: 42-B-02: humanized antibody binding human iRhom2; HCVD SEQ ID NO 33, LCVD SEQ ID NO 37 (antibody, V domains shown)
VH: B4 VH with M34R, S101Q, N111D
VL: B4 VL with S28R, V29I, Y33F, A92S
modifications: antibody sequences
B6: 42-B-04: humanized antibody binding human iRhom2; HCVD SEQ ID NO 41, LCVD SEQ ID NO 45 (antibody, V domains shown)
VH: B4 VH with M34R, S101Q, N111D
VL: B4 VL with S28R, V29I, Y33F
modifications: antibody sequences

Each molecule was assayed on rabbit iRhom1 (assay: FACS binding on MEF-DKO-Rabbit-iR1-FL-WT-T7 cells). Conditions: antibody at 3 μg/ml.
Excerpt: (§1) Next, iRhom1/2−/− DKO MEFs stably expressing a tagged form of rhesus monkey, cynomolgus monkey, dog or rabbit iRhom2 were generated in order to determine cross-reactivity of the antibodies of the invention with the respective orthologue of iRhom2. iRhom1/2−/− DKO MEFs stably expressing a tagged form of rhesus monkey, cynomolgus monkey, dog or rabbit iRhom1 were generated to confirm specificity for iRhom2 versus iRhom1 of these species.
(§2) In brief, on day 1, Phoenix-ECO cells (American Type Culture Collection, USA) were seeded on 6-well tissue culture plates (Greiner, Germany) in standard growth medium at 8×10^5 cells per well and kept overnight at 37° C., 5% CO2. On day 2, the medium was replaced by fresh medium supplemented with chloroquine (Sigma-Aldrich, USA) at a final concentration of 25 μM. Applying the calcium phosphate method, cells were transfected with 2 μg/ml of pMSCV (Clontech, USA) empty vector, pMSCV-rhesus-iR2-FL-WT-T7 encoding rhesus monkey iRhom2 full length wild type C-terminally tagged with 3 consecutive copies of the T7 epitope, pMSCV-cyno-iR2-FL-WT-T7 encoding cynomolgus monkey iRhom2 full length wild type C-terminally tagged with 3 consecutive copies of the T7 epitope, pMSCV-dog-iR2-FL-WT-T7 encoding dog iRhom2 full length wild type C-terminally tagged with 3 consecutive copies of the T7 epitope or pMSCV-rabbit-iR2-FL-WT-T7 encoding rabbit iRhom2 full length wild type C-terminally tagged with 3 consecutive copies of the T7 epitope, respectively, and were kept at 37° C., 5% CO2. After 7 hours, the transfections were stopped by replacing cell supernatants with standard growth medium lacking chloroquine, and cells were incubated at 37° C., 5% CO2 to allow virus production overnight. In parallel, immortalized iRhom1/2−/− DKO MEFs as target cells for retroviral infection were seeded on 6-well tissue culture plates (Greiner, Germany) in standard growth medium at 1×10^5 cells per well and were also kept overnight at 37° C., 5% CO2. On day 3, the supernatants of Phoenix-ECO cells releasing pMSCV, pMSCV-rhesus-iR2-FL-WT-T7, pMSCV-cyno-iR2-FL-WT-T7, pMSCV-dog-iR2-FL-WT-T7 or pMSCV-rabbit-iR2-FL-WT-T7 ecotrophic virus, respectively were collected, filtered with 0.45 μm CA filters, and supplemented with 4 μg/ml of polybrene (Sigma-Aldrich, USA). Upon removal of medium from the immortalized iRhom1/2−/− DKO MEFs, the virus containing supernatants were added to the target cells for 4 hours at 37° C., 5% CO2 for first infection. Simultaneously, Phoenix-ECO cells were re-incubated with fresh medium, which, after another 4 hours, was filtered and used for the second infection of the respective target cell populations, again in the presence of 4 μg/ml of polybrene. Likewise, a third, but overnight infection cycle was performed. On day 4, virus containing cell supernatants were replaced by fresh standard growth medium. From day 5 onwards, cells were grown in the presence of 2 mg/ml of geneticin (G418, Thermo Fisher Scientific, USA) for the selection of immortalized MEF-DKO-EV control cells stably infected with pMSCV empty vector, pMSCV-rhesus-iR2-FL-WT-T7 cells stably expressing rhesus monkey iRhom2 full length wild type C-terminally tagged with 3 consecutive copies of the T7 epitope, pMSCV-cyno-iR2-FL-WT-T7 cells stably expressing cynomolgus monkey iRhom2 full length wild type C-terminally tagged with 3 consecutive copies of the T7 epitope, pMSCV-dog-iR2-FL-WT-T7 cells stably expressing dog iRhom2 full length wild type C-terminally tagged with 3 consecutive copies of the T7 epitope or pMSCV-rabbit-iR2-FL-WT-T7 cells stably expressing rabbit iRhom2 full length wild type C-terminally tagged with 3 consecutive copies of the T7 epitope, respectively. Upon propagation, cells were stocked for future usage. In parallel, iRhom1/2−/− DKO MEFs stably expressing a tagged form of rhesus monkey, cynomolgus monkey, dog or rabbit iRhom1 were generated in an analogous manner. […]

Molecule	binding to rabbit iRhom1 on MEF-DKO-Rabbit-iR1-FL-WT-T7 cells
B1	no significant binding
B2	do not recognize rabbit iRhom1
B3	do not recognize rabbit iRhom1
B4	do not recognize rabbit iRhom1
B5	do not recognize rabbit iRhom1
B6	do not recognize rabbit iRhom1

Each molecule was assayed against T1, rhesus monkey iRhom1 (assay: FACS binding on MEF-DKO-Rhesus-iR1-FL-WT-T7 cells). Conditions: antibody at 3 μg/ml.
Excerpt: as §1, §2

Molecule	binding to rhesus monkey iRhom1 on MEF-DKO-Rhesus-iR1-FL-WT-T7 cells
B1	no significant binding
B2	do not recognize rhesus monkey iRhom1
B3	do not recognize rhesus monkey iRhom1
B4	do not recognize rhesus monkey iRhom1
B5	do not recognize rhesus monkey iRhom1
B6	do not recognize rhesus monkey iRhom1
